Consider eleven molecules from patent US20240400716A1 (UNIVERSITY OF PITTSBURGH OF THE COMMONWEALTH SYSTEM OF …, published 2024).

As a reminder, the EC50 is the concentration that produces a half-maximal response. Low readings indicate an effect from little substance, high ones a need for much substance.

B1: Clone #6 (VH domain) (VHH)
VHH: EVQLVESGGGLVQPGGSLRLSCTVSGFTFSSYAVSWVRQAPGQGLEWVSAIGAGGGTYYADSVKGRFTISRDNSKNTLYLQMNSLRAEDTAVYYCAKDGADWGQGTLVTVSS
notes: Single human VH antibody domain from a phage library, not camelid; also called VH-W5A4
B2: Clone #7 (VH domain) (VHH)
VHH: EVQLVESGGGLVQPGGSLRLSCTVSGFTFSSYAVSWVRQAPGQGLEWVSAIGAGGGTYYADSVKGRFTISRDNSKNTLYLQMNSLRAEDTAVYYCAKDGVDWGQGTLVTVSS
notes: Single human VH antibody domain from a phage library, not camelid
B3: Clone #8 (VH domain) (VHH)
VHH: EVQLVESGGGLVQPGGSLRLSCTVSGFTFSSYAVSWVRQAPGQGLEWVSSIGAGGGTYYADSVKGRFTISRDNSKNTLYLQMNSLRAEDTAVYYCAKDGADWGQGTLVTVSS
notes: as for B2
B4: Clone #9 (VH domain) (VHH)
VHH: EVQLVESGGGLVQPGGSLRLSCTVSGFTFDDYAVSWVRQAPGQGLEWVSSIGAGGGTYYADSVKGRFTISRDDSKDTLYLQMNSLRAEDTAVYYCAKDGVDWGQGTLVTVSS
notes: Single human VH antibody domain from a phage library, not camelid; also called VH-4mut
B5: Clone #3 (VH domain) (VHH)
VHH: EVQLVESGGGVVQPGRSLRLSCAASGFTFSSYAMHWVRQAPGKGLEWVATIYQDGSESEYVDSVKGRFTVSRDNAKNTLYLQMDSLRAEDTATYYCVGRGSTSITPVWGLGTLVTVSS
notes: Single human VH antibody domain from a phage library, not camelid; also called VH-Z4D2
B6: Clone #4 (VH domain) (VHH)
VHH: EVQLVESGGGVVQPGRSLRLSCAASGFTFSSYAMHWVRQAPGKGLEWVATIYQDGSESEYVDSVKGRFTVSRDDAKNTLYLQMDSLRAEDTATYYCVGRDSTSITPVWGLGTLVTVSS
notes: Single human VH antibody domain from a phage library, not camelid; also called VH-Fla; VH-F1a
B7: Clone #10 (VH domain) (VHH)
VHH: EVQMVESGGGVVQPGRSLRLSCAASGFTFSSYAMHWVRQAPGKGLEWVATIYQDGSESEYVDSVKGRFTVSIDNAKNTLYLQMDSLRAEDTATYYCVGRDSTSITPVWGLGTLVTVSS
notes: as for B2
B8: Clone #11 (VH domain) (VHH)
VHH: EVQLVESGGGVVQPGRSLRLSCAASGFTFSSYAMHWVRQAPGKGLEWVATIYQDGSESEYVDSVKGRFTVSIDNAKNTLYLQMDSLRAEDTATYYCVGRASTSITPVWGLGTLVTVSS
notes: as for B2
B9: Clone #5 (VH domain) (VHH)
VHH: EVQLVESGGGMVQPGRSLRLSCAASGFTFSSYAMHWIRQAPGKGLEWVATIYQDGSESEYVDSVKGRFAVSRDNAKNTLYLQMDSLRAEDTATYYCVGRASASITPVWGLGTLVTVSS
notes: as for B2
B10: Clone #2 (scFv) (scFv)
scFv: QVQLQQSGAEVKKPGESLKISCKGSGYSFTNHWIAWVRQMPGKGLEWMGIIYPGDSDTRYSPSFQGQVTISADKSISTAYLQWSSLKASDTAMYYCARAQVGAFDIWGQGTMVTVSSGGGGSGGSGSSGGGSQSALTQPASVSGSPGQSITISCTRARDDVGGDNFVSWYQQHPGKAPKLMIYDVSNRPSGVSNRFSGSKSGNTASLTISGLQAEDEADYYCSSYTSSSTLPVFGGGTQLTVLG
B11: Clone #1 (scFv) (scFv)
scFv: QVTLKESGAEVKKPGESLKISCKASGYSFTNYWIGWVRQMPGKGLEWMGIIYPGDSDTRYSPSFQGQVTISADKSISTAYLQWSSLKASDTAMYYCARQGGYYYGMDVWGQGTTVTVSSGGGGSGGSGSGGGGSVPVLTQPHSVSESPGKTVTISCTRSSGSIASNYVQWYQQRPGSSPTTVIYEDNQRPSGVPDRFSGSIDMSSNSASLTISGLRTEDEGDYYCQSYDSRNHVVFGGGTQLTVLG

T1 sequence (Q04609 whole entry): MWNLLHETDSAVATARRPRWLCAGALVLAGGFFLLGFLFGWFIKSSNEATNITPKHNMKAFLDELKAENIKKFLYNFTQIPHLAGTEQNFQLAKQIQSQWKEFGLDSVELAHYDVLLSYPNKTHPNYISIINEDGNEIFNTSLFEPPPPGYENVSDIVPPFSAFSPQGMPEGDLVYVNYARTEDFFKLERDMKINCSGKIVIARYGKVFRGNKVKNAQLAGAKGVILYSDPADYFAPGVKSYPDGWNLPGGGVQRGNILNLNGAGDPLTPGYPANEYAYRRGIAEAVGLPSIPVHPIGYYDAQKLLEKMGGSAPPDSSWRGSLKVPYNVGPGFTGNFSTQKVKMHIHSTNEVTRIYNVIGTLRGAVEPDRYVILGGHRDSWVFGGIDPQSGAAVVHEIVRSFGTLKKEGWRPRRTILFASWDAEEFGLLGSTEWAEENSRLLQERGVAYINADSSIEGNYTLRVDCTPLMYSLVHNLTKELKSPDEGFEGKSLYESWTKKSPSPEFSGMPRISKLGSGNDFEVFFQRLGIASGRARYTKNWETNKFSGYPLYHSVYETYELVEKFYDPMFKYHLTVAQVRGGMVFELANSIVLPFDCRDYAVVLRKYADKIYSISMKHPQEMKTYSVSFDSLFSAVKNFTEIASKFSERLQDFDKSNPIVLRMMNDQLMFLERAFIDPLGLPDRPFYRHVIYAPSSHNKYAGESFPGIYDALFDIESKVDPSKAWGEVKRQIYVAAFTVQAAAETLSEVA

This assay has as its target T1, human PSMA polypeptide (prostate specific membrane antigen) (human, UniProt Q04609 1-750).
T1 construct: also called PSMA protein
As to the kind of experiment: binding to LNCaP cells expressing PSMA. Here is the method:
Binding affinity and specificity to a human PSMA polypeptide were tested using LNCaP cells expressing the PSMA protein.
B1 showed a half-maximal effective concentration (EC50) of 32.7 nM.
In the case of B2, the EC50 was 8.65 nM.
Next, B3: 10.8 nM.
For B4, the EC50 turned out to be 15.1 nM. This EC50 and that of the molecule before are within 1.5-fold of each other.
Then B5, with 4.59 nM.
Next, B6: 3.05 nM.
Next, B7: 8.7 nM.
B8 came in with an EC50 of 1.81 nM.
Then B9, with 2.95 nM; and B10, with 8.97 nM; and B11, with 6.56 nM.
